B1: ZBTB22 (parent)
chain: FSSSSQEAFAASAVGSGERRGGGP

Variants of: B1
Experiment: protein stability index of a GFP-peptide fusion (GPS, HEK-293T) (PSI 1-6); higher = more stable
Conditions: c terminus: a fixed tail appended
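Note: lentivirally expressed fusions sorted by FACS into six bins by GFP to DsRed ratio, PSI derived from sequencing read proportions per bin multiplied by bin number.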

Compared with FSSSSQEAFAASAVGSGERRGCGP [G22C], FSSSSQEAFAASAVGMGERRGGGP [S16M] is higher in protein stability index: 3.29 for the first, 3.37 for the second.

Going from FSSSSQEAFAASAVGEGERRGGGP [S16E] to FSSSSQEAFAASAVGLGERRGGGP [S16L], the protein stability index falls from 4.25 to 2.75.

Going from FSSSSQEAFAASAVGKGERRGGGP [S16K] to FSSSSQEAFAASAVGWGERRGGGP [S16W], the protein stability index falls from 3.34 to 2.17.

Going from FSSSSQEAFAASAVGFGERRGGGP [S16F] to FSSSSQEAFAASAVGRGERRGGGP [S16R], the protein stability index rises from 2.4 to 3.35.

Compared with FSSSSQEAFAASAVGNGERRGGGP [S16N], FSSSSQEAFAASAVGGGERRGGGP [S16G] is lower in protein stability index: 3.38 for the first, 3.18 for the second.

First: FSSSSQEAFAASAVGYGERRGGGP [S16Y]
Second: FSSSSQEAFAASAVGPGERRGGGP [S16P]
The protein stability index of the first is lower: 2.96 for the first, 3.4 for the second.

Compared with FSSSSQEAFAASAVGTGERRGGGP [S16T], FSSSSQEAFAASAVGIGERRGGGP [S16I] is lower in protein stability index: 3.61 for the first, 3.06 for the second.

Compared with FSSSSQEAFAASAVGDGERRGGGP [S16D], FSSSSQEAFAASAVGVGERRGGGP [S16V] is lower in protein stability index: 3.63 for the first, 3.52 for the second.

First: FSSSSQEAFAASAVGAGERRGGGP [S16A]
Second: FSSSSQEAFAASAVGQGERRGGGP [S16Q]
The protein stability index of the first is higher: 3.29 for the first, 2.96 for the second.

First: FSSSSQEAFAASAVGHGERRGGGP [S16H]
Second: FSSSSQEAFAASAVGSGERRGGGD [P24D]
The protein stability index of the first is lower: 3.27 for the first, 3.89 for the second.

First: FSSSSQEAFAASAVGSGERRGGGE [P24E]
Second: FSSSSQEAFAASAVGSGERRGGGL [P24L]
The protein stability index of the first is higher: 3.8 for the first, 3.32 for the second.

Going from FSSSSQEAFAASAVGSGERRGGGW [P24W] to FSSSSQEAFAASAVGSGERRGGGR [P24R], the protein stability index rises from 2.22 to 3.03.

First: FSSSSQEAFAASAVGSGERRGGGC [P24C]
Second: FSSSSQEAFAASAVGSGERRGGGK [P24K]
The protein stability index of the first is lower: 3.21 for the first, 3.33 for the second.

Going from FSSSSQEAFAASAVGSGERRGGGM [P24M] to FSSSSQEAFAASAVGSGERRGGGN [P24N], the protein stability index rises from 2.43 to 3.29.

Compared with FSSSSQEAFAASAVGSGERRGGGS [P24S], FSSSSQEAFAASAVGSGERRGGGG [P24G] is lower in protein stability index: 3.41 for the first, 2.6 for the second.

Compared with FSSSSQEAFAASAVGSGERRGGGA [P24A], FSSSSQEAFAASAVGSGERRGGGF [P24F] is lower in protein stability index: 3.5 for the first, 2.73 for the second.

First: FSSSSQEAFAASAVGSGERRGGGH [P24H]
Second: FSSSSQEAFAASAVGSGERRGGGQ [P24Q]
The protein stability index of the first is higher: 3.75 for the first, 2.79 for the second.

Going from FSSSSQEAFAASAVGSGERRGGGV [P24V] to FSSSSQEAFAASAVGSGERRGGGT [P24T], the protein stability index rises from 2.92 to 3.07.

Going from FSSSSQEAFAASAVGSGERRGGGI [P24I] to FSSSSQEAFAASAVASGERRGGGP [G15A], the protein stability index rises from 2.6 to 3.09.

Compared with FSSSSQEAFAASAVWSGERRGGGP [G15W], FSSSSQEAFAASAVSSGERRGGGP [G15S] is higher in protein stability index: 2.72 for the first, 3.61 for the second.

Compared with FSSSSQEAFAASAVTSGERRGGGP [G15T], FSSSSQEAFAASAVHSGERRGGGP [G15H] is higher in protein stability index: 3.12 for the first, 3.24 for the second.

First: FSSSSQEAFAASAVRSGERRGGGP [G15R]
Second: FSSSSQEAFAASAVKSGERRGGGP [G15K]
The protein stability index of the first is lower: 2.78 for the first, 3.41 for the second.

Going from FSSSSQEAFAASAVLSGERRGGGP [G15L] to FSSSSQEAFAASAVPSGERRGGGP [G15P], the protein stability index falls from 3.89 to 3.58.

Compared with FSSSSQEAFAASAVYSGERRGGGP [G15Y], FSSSSQEAFAASAVNSGERRGGGP [G15N] is higher in protein stability index: 2.58 for the first, 3.43 for the second.

First: FSSSSQEAFAASAVCSGERRGGGP [G15C]
Second: FSSSSQEAFAASAVDSGERRGGGP [G15D]
The protein stability index of the first is lower: 2.94 for the first, 4.16 for the second.

Compared with FSSSSQEAFAASAVFSGERRGGGP [G15F], FSSSSQEAFAASAVVSGERRGGGP [G15V] is higher in protein stability index: 2.02 for the first, 2.53 for the second.

First: FSSSSQEAFAASAVMSGERRGGGP [G15M]
Second: FSSSSQEAFAASAVQSGERRGGGP [G15Q]
The protein stability index of the first is lower: 3.25 for the first, 3.26 for the second.

Compared with FSSSSQEAFAASAVESGERRGGGP [G15E], FSSSSQEAFAASAVISGERRGGGP [G15I] is lower in protein stability index: 3.85 for the first, 3.3 for the second.

Going from FSSSSQEAFAASAVGSGENRGGGP [R19N] to FSSSSQEAFAASAVGSGEDRGGGP [R19D], the protein stability index falls from 3.49 to 2.53.

Compared with FSSSSQEAFAASAVGSGEQRGGGP [R19Q], FSSSSQEAFAASAVGSGEGRGGGP [R19G] is higher in protein stability index: 3.47 for the first, 3.82 for the second.

Going from FSSSSQEAFAASAVGSGEMRGGGP [R19M] to FSSSSQEAFAASAVGSGEVRGGGP [R19V], the protein stability index rises from 3.35 to 3.46.

Going from FSSSSQEAFAASAVGSGEFRGGGP [R19F] to FSSSSQEAFAASAVGSGEWRGGGP [R19W], the protein stability index falls from 3.15 to 2.04.

Compared with FSSSSQEAFAASAVGSGEYRGGGP [R19Y], FSSSSQEAFAASAVGSGESRGGGP [R19S] is higher in protein stability index: 3.32 for the first, 3.86 for the second.

Going from FSSSSQEAFAASAVGSGEERGGGP [R19E] to FSSSSQEAFAASAVGSGEKRGGGP [R19K], the protein stability index falls from 4.24 to 3.41.

Compared with FSSSSQEAFAASAVGSGEARGGGP [R19A], FSSSSQEAFAASAVGSGEIRGGGP [R19I] is lower in protein stability index: 3.43 for the first, 3.23 for the second.

Compared with FSSSSQEAFAASAVGSGETRGGGP [R19T], FSSSSQEAFAASAVGSGEHRGGGP [R19H] is lower in protein stability index: 3.78 for the first, 3.34 for the second.

Compared with FSSSSQEAFAASAVGSGEPRGGGP [R19P], FSSSSQEAFAASAVGSGECRGGGP [R19C] is lower in protein stability index: 3.36 for the first, 3.07 for the second.

Going from FSSSSQEAFAASAVGSGELRGGGP [R19L] to FSSSSQEAFAASAVGSGERGGGGP [R20G], the protein stability index rises from 2.87 to 3.14.

Going from FSSSSQEAFAASAVGSGERQGGGP [R20Q] to FSSSSQEAFAASAVGSGERKGGGP [R20K], the protein stability index falls from 3.71 to 3.37.

Compared with FSSSSQEAFAASAVGSGERDGGGP [R20D], FSSSSQEAFAASAVGSGERCGGGP [R20C] is lower in protein stability index: 3.64 for the first, 2.9 for the second.

First: FSSSSQEAFAASAVGSGERTGGGP [R20T]
Second: FSSSSQEAFAASAVGSGERNGGGP [R20N]
The protein stability index of the first is higher: 3.63 for the first, 3.36 for the second.

Compared with FSSSSQEAFAASAVGSGEREGGGP [R20E], FSSSSQEAFAASAVGSGERMGGGP [R20M] is lower in protein stability index: 4.12 for the first, 3.3 for the second.

First: FSSSSQEAFAASAVGSGERVGGGP [R20V]
Second: FSSSSQEAFAASAVGSGERPGGGP [R20P]
The protein stability index of the first is lower: 3.41 for the first, 4.34 for the second.

First: FSSSSQEAFAASAVGSGERFGGGP [R20F]
Second: FSSSSQEAFAASAVGSGERWGGGP [R20W]
The protein stability index of the first is higher: 2.97 for the first, 2.21 for the second.

Going from FSSSSQEAFAASAVGSGERYGGGP [R20Y] to FSSSSQEAFAASAVGSGERAGGGP [R20A], the protein stability index rises from 3.3 to 3.42.

Compared with FSSSSQEAFAASAVGSGERSGGGP [R20S], FSSSSQEAFAASAVGSGERLGGGP [R20L] is higher in protein stability index: 3.68 for the first, 3.78 for the second.

Compared with FSSSSQEAFAASAVGSGERHGGGP [R20H], FSSSSQEAFAASAVGSGERIGGGP [R20I] is higher in protein stability index: 2.96 for the first, 3.17 for the second.

Source: the supplement of paper PMC10567573
